This series is described as follows: PPi assay: HvPPA-mediated hydrolysis of PPi to Pi (malachite green). The series is classed as biochemical, Haloferax volcanii. The settings on record: for Temp., optimum: 20 mM Tris-Cl pH 8, 3 M NaCl; for Cation-dependence: EDTA-treated enzyme, 20 mM Tris-Cl pH 8, 2 M NaCl. The procedure:
FIGS. 4A-4D. Effect of pH, temperature, salt and divalent cations on Haloferax volcanii inorganic phyrophosphatase (HvPPA) activity. A-C) HvPPA was equilibrated for 10 min at the pH, temperature, and NaCl concentrations indicated prior to the addition of PPi substrate (100 μM). MgCl2 (10 mM) was included in the activity assays. For pH optimum, assays were supplemented with 3 M NaCl and included 20 mM buffers of sodium acetate at pH 4-5, MES at pH 6-6.5, Tris-Cl at pH 7-9 and CAPS at pH 10. For temperature optimum assays, reactions were in 20 mM Tris-Cl pH 8 supplemented with 3 M NaCl. For salt optimum, HvPPA was diluted from 20 mM Tris-Cl pH 8 containing 3 m NaCl into the same buffer with NaCl concentrations as indicated. D) To test the influence of cations, HvPPA was dialyzed sequentially against 500 ml of buffer (20 mM Tris-Cl pH 8, 2 M NaCl and 1 μM EDTA) (4 h at 4° C.) and the same buffer with EDTA omitted (4 h at 4° C.). Reactions for panel D contained HvPPA (0.93 μg), 20 mM Tris-Cl pH 8, 2 M NaCl and divalent metal at the concentration indicated. Metals used were: CaCl2.2H2O, ZnCl2, CoCl2.6H2O, MnCl2.4H2O, NiCl2.6H2O and MgCl2.6H2O. Reactions were monitored for 10 min at RT unless otherwise indicated.
FIGS. 6A-6D. Effect of salt, solvent and temperature on Haloferax volcanii inorganic phyrophosphatase (HvPPA). A) HvPPA thermostability. HvPPA was incubated at 42° C. and 65° C. as indicated with enzyme at 0.093 mg/ml of buffer (20 mM Tris-Cl pH 8, 2.5 mM MgCl2 and 3 M NaCl). HvPPA was diluted to 0.28 μg per 100 μl buffer (with MgCl2 increased to 10 mM) and assayed by addition of 1 mM PPi substrate (10 min, RT). Activity is % relative to samples incubated on ice. B) HvPPA stability in 50% (v/v) solvent. HvPPA was incubated for 2 h (on ice) at 0.47 mg/ml buffer (20 mM Tris-Cl pH 8 and 2 M NaCl) supplemented with solvent as indicated. HvPPA was diluted to 2.4 μg per 100 μl buffer (20 mM Tris-Cl pH 8, 2.5 mM MgCl2 and 2 M NaCl) and assayed by addition of 50 μM PPi substrate (10 min, RT). Activity is % relative to samples incubated with no solvent. C) HvPPA activity in 25% (v/v) solvent. Reactions were 500 μl with 2.8 μg HvPPA, 1.5 M NaCl, 1.5 mM PPi, 10 mM MgCl2. Reaction occurred at 10 minutes at RT. D) HvPPA stability in salt. HvPPA was incubated for 2 h (on ice) at 0.3 mg per ml of buffer (20 mM Tris-Cl pH 8) supplemented with NaCl at the concentrations indicated. HvPPA was diluted to 0.87 μg per 100 μl reaction buffer as in FIG. 6B. Activity is % relative to samples incubated in buffer supplemented with 3M NaCl.
PPA activity monitored in Tris-salt buffer at 37° C. and pH 8.5 with 0.1 mM PPi for 10 min. U, units defined as μmol product/min. SD, standard deviation of three experiments.
HvPPA-mediated hydrolysis of PPi to Pi was determined spectrophotometrically. Reagents were in nanopure water (Barnstead/Thermolyne Nanopure lab water system). Sodium pyrophosphate tetrabasic decahydrate (Sigma Aldrich) was used as a substrate. For kinetic measurements, reaction mixtures (500 μl total) contained 0.5-1 μg HvPPA and 1 mM PPi in high-salt buffer (3 M NaCl and 20 mM Tris-HCl, pH 8.5). Reactions were incubated at 42° C. for 1-3 min. Orthophosphate levels were determined by malachite green assay. Briefly, 2.5 ml of 14% (w/v) (NH4)2MoO4 and 0.2 ml of 11% (v/v) TWEEN 20 ® (Polyoxyethylene sorbitan monolaurate) were added into a 10-ml color reagent I (containing 1.67 ml conc. sulfuric acid, 8.33 ml nanopure H2O, and 12.22 mg malachite green). In triplicate, 50 μl of the color reagent was mixed with 200 μl of the reaction mixture and incubated at room temperature for 10 min. The formation of (MG^+)(H2PMo12O40) (where MG^+ represents ionized malachite green) was monitored at A630. A less sensitive malachite green assay was also used in which reaction aliquots (50 μl) were mixed with 250 μl color reagent II and 10 μl 1.5% (v/v) TWEEN 20 ® (Polyoxyethylene sorbitan monolaurate) in triplicate; product formation was immediately monitored at A650. […]

“Also recorded” adds a separate entry of the source. Read-outs that look alike come from different tables or passages of the source.

B1: HvPPA: Class A type inorganic pyrophosphatase from Haloferax volcanii, amino acid sequence of SEQ ID NO: 2 (protein, listed as Haloferax volcanii)
chain: MVNLWEDMETGPNAPDEIYAVVECLKGERNKYEYDKDIPGVVLDRVLHSNVHYPSDYGFIPQTYYDDEDPFDVLVLVEDQTFPGCVIEARPVALMKMDDDGEQDDKVIAVPVEDPRYDHIEDLDDIPQQTLDEIDEFFATYKNLEAGKEVETLGWEDKQAAKDAIEHAMDLYEENFA
One may read the kcat as the number of substrate molecules converted per active site and unit of time at saturation. The term Km denotes the substrate concentration at which the rate is half of its maximum. Consider B1, for which the “Substrate(s) hydrolyzed” value was “PPi”; the “hydrolysis of nucleoside triphosphate (ATP, TTP, GTP or CTP) or nucleoside diphosphate (ADP)” value is given as “did not hydrolyze detectable levels”; the kcat was found to be 1050 s⁻¹; the “Temp., optimum” value was 42 °C. Further, the Cation-dependence entry was “partially restored by supplementation of the enzyme with Mn^2+ or Mg^2+ ions”. For the same molecule, the “activity of restored EDTA-treated enzyme versus untreated control” value (2.5 mM MgCl2) is on record as “half the activity of the untreated control”. The “Temp., optimum” value (listed as HvPPA hexamers) came to 42 °C. Moreover, the “effect of NaCl on relative activity” value (0.025 to 3 M NaCl) is recorded as “little, if any, effect; also recorded: fully active”. Further, the “optimal activity, basic pH” value (3 M NaCl, 10 mM MgCl2, 100 μM PPi, RT) is reported as 8-9 pH. For the same molecule, the “activity in organic solvent compared to no solvent controls” value (25% (v/v) DMSO or DMF) is 63-94%. Also, for the setting “25% (v/v) methanol or ethanol”, the “activity in organic solvent compared to no solvent controls” value is listed as 110-150%. In addition, the “pH, optimum” value (25° C.) is “pH 8.5 (25° C.)”. The Vmax (25° C., PPi substrate) was found to be 53 U/mg. For the same molecule, for the setting “42° C.”, the Vmax is listed as 465 U · mg^−1. Where the note is “42° C., PPi substrate”, the Vmax is 465 U/mg. Besides, the Cation-dependence result (listed as Haloferax volcanii) is on record as “Mg^2+, Mn^2+”. In addition, the “Mg^2+ concentration for optimal PPi hydrolyzing activity” value (Mg^2+ added to reaction buffer) is 20 to 40 mM. Also, the “Hill coefficient(s) (Mg^2+)” value (Mg^2+, 25° C.) is 2.6 (Mg^2+, 25° C.). The “Hill coefficient(s) (PPi)” value (PPi, 42° C.) is given as 2.1 (PPi, 42° C.). Moreover, the “effect of removal of divalent cations” value (dialysis against the metal chelator EDTA) is given as “inactivated”. Also, under “for Mg^2+, 25° C., listed as Haloferax volcanii, read-out: Km Mg^2+”, the Km was determined as 13.4 mM. For the setting “for Mg^2+, 25° C., read-out: Km Mg^2+”, the Km was determined as 13 mM. For the same molecule, the Km (for PPi, 25° C., read-out: Km PPi) amounted to 0.26 mM. For the same molecule, the Km (for PPi, 42° C., read-out: Km PPi) was 0.55 mM.

For the origin of these results see US11466260B2, “Thermostable haloarchaeal inorganic pyrophosphatase” (UNIVERSITY OF FLORIDA RESEARCH FOUNDATION, INCORPORATED, priority 2015, dated 2022).
